# Laboratory results taken from article PMC2788865.
# Tests used:
# [1] = target: phospho-Thr^286-αCaMKII (mouse) (UniProt P11798); assay: fluorescence polarisation
# calmodulin (CaM) = assay: FL-CaM fluorescence polarisation; details: reference: αCaMKII with Ca2+/FL-CaM, no ATP; sites T286
# Sequence of αCaMKII (P11798 whole entry, looked up, change not shown): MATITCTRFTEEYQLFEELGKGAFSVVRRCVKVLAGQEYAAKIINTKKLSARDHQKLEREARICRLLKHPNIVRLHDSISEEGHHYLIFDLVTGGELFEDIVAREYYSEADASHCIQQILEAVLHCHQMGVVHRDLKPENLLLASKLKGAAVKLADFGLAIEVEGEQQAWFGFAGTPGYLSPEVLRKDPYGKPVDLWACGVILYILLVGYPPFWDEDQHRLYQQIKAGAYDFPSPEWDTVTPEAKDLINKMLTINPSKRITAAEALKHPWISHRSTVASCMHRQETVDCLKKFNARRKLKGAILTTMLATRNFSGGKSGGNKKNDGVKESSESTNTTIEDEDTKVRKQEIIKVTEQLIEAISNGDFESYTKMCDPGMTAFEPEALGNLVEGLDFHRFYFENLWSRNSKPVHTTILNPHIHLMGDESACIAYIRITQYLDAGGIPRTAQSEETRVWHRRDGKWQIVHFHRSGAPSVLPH
# Sequence of phospho-Thr^286-αCaMKII (mouse) (P11798 whole entry): as the sequence (P11798 whole entry, looked up, change not shown) above
"rate constant of CaM dissociation (polarization, slow phase) after EGTA [1] [s⁻¹]",other: fluorescence polarisation of FL-CaM (calmodulin (CaM)),Substance
0.02,–,Lys^75-FL-calmodulin (FL-CaM) (from UniProt P0DP23 1-149) (natural protein)
–,stronger; reference 0.33,αCaMKII (from UniProt P11798) αCaMKII with Ca2+/FL-CaM and ATP (autophosphorylated)
